In one assay the target is T1, TNFa mutant Y119A (UniProt P01375 77-233, Y119A).
T1 construct: The text speaks of 'Y119 mutants'; also called Y119 mutants; Y119 TNFalpha variants
The assay is described as follows: ELISA of N11 on Y119 mutants (FIG. 12A). Background: An ELISA detects its analyte on a solid surface through an enzyme-linked reagent.

The target in another assay is T2, TNFa mutant Y119R (UniProt P01375 77-233, Y119R).
T2 construct: The text speaks of 'Y119 mutants'; also called Y119 mutants; Y119 TNFalpha variants
T2 sequence (P01375 77-233 Y195R): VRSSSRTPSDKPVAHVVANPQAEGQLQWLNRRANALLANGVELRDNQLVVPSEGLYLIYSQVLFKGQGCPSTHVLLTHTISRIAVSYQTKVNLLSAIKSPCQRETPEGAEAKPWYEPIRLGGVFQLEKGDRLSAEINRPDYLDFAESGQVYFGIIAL
The assay is described as follows: ELISA of N11 on Y119 mutants (FIG. 12A).

Another assay has as its target T3, murine TNFa (murine, UniProt P06804 80-235).
T3 construct: also called mTNFa; mouse TNF
T3 sequence (looked up): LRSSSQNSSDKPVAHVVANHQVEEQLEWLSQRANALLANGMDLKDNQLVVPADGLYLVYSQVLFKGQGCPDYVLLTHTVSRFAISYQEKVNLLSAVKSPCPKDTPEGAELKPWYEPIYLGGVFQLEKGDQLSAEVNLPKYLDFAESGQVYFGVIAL
Put plainly: ELISA at a single concentration (EC100) on a plate functionalized with mTNFa (FIG. 3).

The target of a further assay is T4, TNFa mutant S95C/G148C (UniProt P01375 77-233, S95C; G148C, disulfide bridges between subunits via C95 and C148).
T4 construct: Positions probably count on the mature soluble chain; also called stabilized trimer of TNFa; stabilized TNFa trimer
T4 sequence (P01375 77-233 S171C/G224C): as the sequence (P01375 77-233 Y195R) above, with S95C, R119Y, G148C counted along it
Put plainly: ELISA of N11 on TNFa mutants (FIG. 12).

This is an account of results in US20210380647A1 (AFFILOGIC, published 2021).

T1 sequence (P01375 77-233 Y195A): as the sequence (P01375 77-233 Y195R) above, with R119A counted along it
Procedure for murine TNFa: Biotinylated antigens are immobilized on streptavidin-coated plates as described above, except that the blocking step is performed for 1h at room temperature. For the identification of the positive clones, 100 μl of E. coli crude extracts are applied to wells with or without immobilized antigen for 1 h at RT. The binding is visualized using anti-RGSHis antibody HRP conjugate (Qiagen) which detects RGSHis6 tag from the variant and a solution at 1 mg/ml of o-phenylenediamine substrate (OPD) in revelation buffer (0.05 M citric acid, 0.05% hydrogen peroxide). Absorbance at 450 nm is measured using an ELISA plate reader. Quantitative ELISAs is done in the same manner, except purified protein is used.
A plate was functionalized with hTNFa and mTNFa.

B1: N11 (designed binder)
chain: MVKVKFVMFGKEKEVDTSKIVHVMRQGKLVHFWYEDNGKIDKGFVPEKDAPKELLDMLARAEREK
notes: Variant of Sac7d selected by ribosome display on biotinylated hTNFa; also called Sac7d variant N11; Nanofitin N11
B1: the binding result with TNFa mutant Y119A is reported as “binds”; with TNFa mutant Y119R it was “binds”; in the assay with murine TNFa, “binds”; in the assay with TNFa mutant S95C/G148C it was “no binding”.
